Consider eight molecules from PMC12607630, “ZapC crosslinks FtsZ filaments through a dual-binding mechanism modulated by the intrinsically disordered linker of FtsZ in Escherichia coli” (mBio, 2025).

“And” between values parts separate entries of the source, which are not always exact repeats. Equal values may be shown once.

B1: FtsZ (wild-type, untagged) (natural protein, Escherichia coli, UniProt P0A9A6 1-383, looked up)
chain: MFEPMELTNDAVIKVIGVGGGGGNAVEHMVRERIEGVEFFAVNTDAQALRKTAVGQTIQIGSGITKGLGAGANPEVGRNAADEDRDALRAALEGADMVFIAAGMGGGTGTGAAPVVAEVAKDLGILTVAVVTKPFNFEGKKRMAFAEQGITELSKHVDSLITIPNDKLLKVLGRGISLLDAFGAANDVLKGAVQGIAELITRPGLMNVDFADVRTVMSEMGYAMMGSGVASGEDRAEEAAEMAISSPLLEDIDLSGARGVLVNITAGFDLRLDEFETVGNTIRAFASDNATVVIGTSLDPDMNDELRVTVVATGIGMDKRPEITLVTNKQVQQPVMDRYQQHGMAPLTQEQKPVAKVVNDNAPQTAKEPDYLDIPAFLRKQAD
notes: FtsZ, Escherichia coli; Made from the same 6×his-sumo-ftsZ plasmid as the fusion that the methods call full-length FtsZ; also called wild-type FtsZ; untagged FtsZ; source: E. coli BL21(DE3), plasmid pLY17, purified (Ni-NTA; 6×His-SUMO tag removed with Ulp1); not shown: 6×His, N-terminal, cleaved; SUMO, N-terminal, cleaved
B2: 6×His-ZapC (natural protein)
chain: not shown
notes: ZapC, Escherichia coli; also called His-tagged ZapC; source: E. coli, plasmid pSD323 (pQE80, Plac::6×His-ZapC), purified (Ni-NTA) as for FtsZ; not shown: 6×His, N-terminal, kept
B5: ZapC (untagged) (natural protein)
chain: not shown
notes: ZapC, Escherichia coli; also called untagged ZapC; source: E. coli, plasmid pLY28 (pE-SUMO-Amp, PT7::6×his-sumo-zapC), purified (Ni-NTA; 6×His-SUMO tag removed with Ulp1); not shown: 6×His, N-terminal, cleaved; SUMO, N-terminal, cleaved
B8: ZapC (untagged) (natural protein)
chain: not shown
notes: ZapC, FtsZ-associated protein of Escherichia coli; source: E. coli BL21(DE3), plasmid pLY28, purified (Ni-NTA); 6×His-SUMO tag removed with Ulp1; not shown: 6×His-SUMO, N-terminal, cleaved

Conditions in all cases: both partners purified
Assay [1] deals with T1, 6×His-ZapC double mutant (F30D, K94D) (Escherichia coli, UniProt P75862 1-180, F30D | K94D).
T1 construct: ZapC, Escherichia coli; The text calls it only 'the double mutant' after naming ZapC^F30D and ZapC^K94D; also called the double mutant; source: E. coli, derivative of pSD323, purified (Ni-NTA) as for FtsZ; not shown: 6×His, N-terminal, kept
The assay can be described thus: BLI; 6×His-ZapC or its mutants (0.5 µM) loaded on Ni-NTA biosensors; FtsZ or its variants in solution; Octet-Red96, 30°C, 1× Pol buffer (50 mM HEPES-NaOH pH 6.8, 50 mM KCl, 10 mM MgCl2); apparent Kd from the signal at the end of association, one-site fit. On the technique in general: In BLI a coated tip is dipped into the sample, and binding shifts an interference pattern.

For assay [2], the target named is B1. Described as above.
The target of another assay is T2, FtsZ^F285S (untagged) (Escherichia coli, UniProt P0A9A6 1-383, F285S).
T2 construct: FtsZ, Escherichia coli; source: E. coli BL21(DE3), derivative of pLY17, purified (Ni-NTA; 6×His-SUMO tag removed with Ulp1); not shown: 6×His, N-terminal, cleaved; SUMO, N-terminal, cleaved
T2 sequence (looked up): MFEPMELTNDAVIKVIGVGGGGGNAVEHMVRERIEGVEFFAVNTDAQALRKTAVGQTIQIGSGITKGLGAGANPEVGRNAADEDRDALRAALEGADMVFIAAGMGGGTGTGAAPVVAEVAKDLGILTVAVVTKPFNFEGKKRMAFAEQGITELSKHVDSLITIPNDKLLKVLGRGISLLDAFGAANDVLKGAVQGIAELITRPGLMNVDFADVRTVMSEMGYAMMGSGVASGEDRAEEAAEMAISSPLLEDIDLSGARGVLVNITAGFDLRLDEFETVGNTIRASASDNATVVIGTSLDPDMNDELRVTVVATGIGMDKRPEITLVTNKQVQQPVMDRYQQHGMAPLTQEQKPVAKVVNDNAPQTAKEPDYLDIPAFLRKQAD
Described as above.

For assay [3], the target named is B8. The assay can be described thus: BLI; 6×His-SUMO fusions of FtsZ or its parts, or SUMO alone (0.5 µM), held on Ni-NTA biosensors, untagged ZapC in solution; Octet-Red96, 30°C, 1× Pol buffer (50 mM HEPES-NaOH pH 6.8, 50 mM KCl, 10 mM MgCl2); apparent Kd from the signal at the end of association against concentration, one-site fit; three repeats with mean (X) and SD.

In assay [4] the target is B5. The assay can be described thus: BLI; SUMO fusions of FtsZ or its parts, or SUMO alone (0.5 µM), held on Ni-NTA biosensors; untagged ZapC in solution; Octet-Red96, 30°C, 1× Pol buffer; apparent Kd from the signal at the end of association, one-site fit.
A further assay has as its target T3, SUMO-FtsZ (Escherichia coli, UniProt P0A9A6 1-383).
T3 construct: FtsZ, Escherichia coli; also called 6×His-SUMO-FtsZ; SUMO fusion containing full-length FtsZ; source: E. coli BL21(DE3), plasmid pLY17 (pE-SUMO-Amp, PT7::6×his-sumo-ftsZ), purified (Ni-NTA); not shown: 6×His, N-terminal, kept; SUMO, N-terminal, kept
T3 sequence (looked up): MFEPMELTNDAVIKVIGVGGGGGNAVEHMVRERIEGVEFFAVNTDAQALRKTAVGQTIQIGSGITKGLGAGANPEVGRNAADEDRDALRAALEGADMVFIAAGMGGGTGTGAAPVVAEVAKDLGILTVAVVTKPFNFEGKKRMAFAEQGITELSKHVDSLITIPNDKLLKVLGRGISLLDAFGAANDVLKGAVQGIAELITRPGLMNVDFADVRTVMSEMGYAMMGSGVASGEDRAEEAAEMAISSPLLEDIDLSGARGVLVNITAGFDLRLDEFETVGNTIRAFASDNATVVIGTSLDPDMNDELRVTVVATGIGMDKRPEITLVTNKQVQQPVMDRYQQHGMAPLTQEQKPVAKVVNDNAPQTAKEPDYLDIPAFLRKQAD
Described as above.

The assay “6×His-ZapC” has as its target B2. The assay can be described thus: BLI; 6×His-ZapC or its mutants (0.5 µM) loaded on Ni-NTA biosensors; FtsZ or its variants in solution; Octet-Red96, 30°C, 1× Pol buffer (50 mM HEPES-NaOH pH 6.8, 50 mM KCl, 10 mM MgCl2); apparent Kd from the signal at the end of association, one-site fit.
For assay [5], the target named is T4, FtsZ (untagged, wild type) (Escherichia coli, UniProt P0A9A6 1-383).
T4 construct: also called wild-type FtsZ; source: E. coli BL21(DE3), plasmid pLY17, purified (Ni-NTA); 6×His-SUMO tag removed with Ulp1; not shown: 6×His-SUMO, N-terminal, cleaved
T4 sequence (looked up): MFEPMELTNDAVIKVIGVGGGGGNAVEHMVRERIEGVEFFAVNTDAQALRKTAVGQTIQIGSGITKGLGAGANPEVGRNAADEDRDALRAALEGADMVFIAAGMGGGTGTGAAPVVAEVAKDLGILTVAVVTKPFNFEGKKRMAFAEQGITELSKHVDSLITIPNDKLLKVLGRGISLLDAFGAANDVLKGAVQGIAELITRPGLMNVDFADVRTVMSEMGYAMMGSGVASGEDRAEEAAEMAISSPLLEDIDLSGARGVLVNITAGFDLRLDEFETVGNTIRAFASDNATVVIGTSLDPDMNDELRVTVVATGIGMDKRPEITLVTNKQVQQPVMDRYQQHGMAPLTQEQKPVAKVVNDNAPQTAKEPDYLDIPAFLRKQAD
Nature of the assay: BLI; 6×His-ZapC or its mutants (0.5 µM) loaded on Ni-NTA biosensors, untagged FtsZ or its variants in solution; Octet-Red96, 30°C, 1× Pol buffer (50 mM HEPES-NaOH pH 6.8, 50 mM KCl, 10 mM MgCl2); apparent Kd from the signal at the end of association against concentration, one-site fit; three repeats with mean (X) and SD.

For a further assay, the target named is T5, 6×His-SUMO-FtsZ (Escherichia coli, UniProt P0A9A6 1-383).
T5 construct: FtsZ of Escherichia coli, full length, fused behind 6×His-SUMO; Forward primer BsaI-out-F starts the FtsZ insert at codon 2; source: E. coli BL21(DE3), plasmid pLY17, purified (Ni-NTA); not shown: 6×His-SUMO, N-terminal, kept
T5 sequence (looked up): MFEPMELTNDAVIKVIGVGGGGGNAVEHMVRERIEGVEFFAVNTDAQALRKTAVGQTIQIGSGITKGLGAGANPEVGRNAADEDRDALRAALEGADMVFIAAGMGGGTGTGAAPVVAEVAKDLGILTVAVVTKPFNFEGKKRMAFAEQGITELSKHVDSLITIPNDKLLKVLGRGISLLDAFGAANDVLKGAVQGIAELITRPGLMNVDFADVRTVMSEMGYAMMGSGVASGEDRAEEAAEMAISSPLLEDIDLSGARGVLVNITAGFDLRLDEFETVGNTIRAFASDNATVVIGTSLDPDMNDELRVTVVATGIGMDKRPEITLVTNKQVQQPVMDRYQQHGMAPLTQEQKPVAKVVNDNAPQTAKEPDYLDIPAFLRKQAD
Nature of the assay: BLI; 6×His-SUMO fusions of FtsZ or its parts, or SUMO alone (0.5 µM), held on Ni-NTA biosensors, untagged ZapC in solution; Octet-Red96, 30°C, 1× Pol buffer (50 mM HEPES-NaOH pH 6.8, 50 mM KCl, 10 mM MgCl2); apparent Kd from the signal at the end of association against concentration, one-site fit; three repeats with mean (X) and SD.

In the case of B1, in assay [1], the “fold increase of Kd against wild-type ZapC” value turned out to be 12 fold. As for B2, the Kd in [2] stood at 0.39 µM; with FtsZ^F285S (untagged), 6.37 µM.

B3: 6×His-SUMO-FtsZ 316-383 (domain or fragment, Escherichia coli, UniProt P0A9A6 316-383, looked up)
chain: GMDKRPEITLVTNKQVQQPVMDRYQQHGMAPLTQEQKPVAKVVNDNAPQTAKEPDYLDIPAFLRKQAD
notes: source: E. coli BL21(DE3), plasmid pLY342, purified (Ni-NTA); not shown: 6×His-SUMO, N-terminal, kept
On to B3, for which, in the assay with ZapC (untagged) [3], the Kd was 11.2 µM and 10.4 µM and 8.11 µM and 9.89 µM.

B4: SUMO-FtsZ^316-383 (domain or fragment, Escherichia coli, UniProt P0A9A6 316-383, looked up)
chain: GMDKRPEITLVTNKQVQQPVMDRYQQHGMAPLTQEQKPVAKVVNDNAPQTAKEPDYLDIPAFLRKQAD
notes: Held on Ni-NTA biosensors; plasmid construction is in the Supplemental Information; also called SUMO fusion containing the CTL and CTP; source: E. coli, purified SUMO fusion; not shown: 6×His, N-terminal, kept; SUMO, N-terminal, kept
As to B4, the Kd with ZapC (untagged) [4] came to 10 µM. As for B5, in the assay with SUMO-FtsZ, the Kd turned out to be 1.5 µM.

B6: FtsZ^1–370 (domain or fragment, Escherichia coli, UniProt P0A9A6 1-370, looked up)
chain: MFEPMELTNDAVIKVIGVGGGGGNAVEHMVRERIEGVEFFAVNTDAQALRKTAVGQTIQIGSGITKGLGAGANPEVGRNAADEDRDALRAALEGADMVFIAAGMGGGTGTGAAPVVAEVAKDLGILTVAVVTKPFNFEGKKRMAFAEQGITELSKHVDSLITIPNDKLLKVLGRGISLLDAFGAANDVLKGAVQGIAELITRPGLMNVDFADVRTVMSEMGYAMMGSGVASGEDRAEEAAEMAISSPLLEDIDLSGARGVLVNITAGFDLRLDEFETVGNTIRAFASDNATVVIGTSLDPDMNDELRVTVVATGIGMDKRPEITLVTNKQVQQPVMDRYQQHGMAPLTQEQKPVAKVVNDNAPQTAKEPD
notes: FtsZ, Escherichia coli, residues 1-370; Plasmid construction is in the Supplemental Information; also called FtsZ lacking the CTP; source: E. coli BL21(DE3), SUMO-tag purification system, purified; not shown: 6×His, N-terminal, cleaved; SUMO, N-terminal, cleaved
For the molecule B6, the “fold decrease of affinity against wild-type FtsZ” value in the assay with 6×His-ZapC was roughly 3 fold.

B7: 6×His-ZapC F30D, K94D (natural protein)
chain: not shown
notes: ZapC of Escherichia coli with F30D and K94D; Derivative of pSD323 by site-directed mutagenesis; also called ZapC^F, K; -ZapCF, K; source: E. coli, plasmid pLY317 (pQE80L, Plac::6Xhis-zapC F30D, K94D), purified (Ni-NTA); not shown: His6, N-terminal, kept
Consider B7, for which, in [5], the Kd was 6.39 µM and 5.16 µM and 4.77 µM and 5.44 µM. In the case of B8, the Kd with 6×His-SUMO-FtsZ was 1.5 µM and 1.28 µM and 1.9 µM and 1.56 µM.
